# Test results from publication doi:10.1101/2020.11.03.367284.
# Tests used:
# [1] = target: GSU0105, triheme c-type cytochrome from Geobacter sulfurreducens, with C-terminal Factor Xa-cleavable His-tag (Geobacter sulfurreducens); assay: SAXS
# [2] = target: GSU0105, triheme c-type cytochrome from Geobacter sulfurreducens, with C-terminal Factor Xa-cleavable His-tag (Geobacter sulfurreducens); assay: pull-down
Substance,stoichiometry N [1],Kd [2]
"GSU0105, triheme c-type cytochrome from Geobacter sulfurreducens, with C-terminal Factor Xa-cleavable His-tag (natural protein)",4,
"PpcD, triheme cytochrome c7 from Geobacter sulfurreducens (natural protein)",,< 10 µM
